From article PMC12876063, “Rad51 determines pathway usage in post-replication repair” (Nature Communications, 2026) come the findings set out here.

Numbering of substitutions follows the chain as printed. Numbers in names are those of the source. Where “and” joins values, the source holds several entries; their conditions need not be identical. Equal values may be shown once.

The Kd is a measure of binding affinity in units of concentration.

Data set [1] deals with T1, Rad51-KN (Rad51-K305N) K305N (Saccharomyces cerevisiae) (UniProt P25454).
T1 sequence: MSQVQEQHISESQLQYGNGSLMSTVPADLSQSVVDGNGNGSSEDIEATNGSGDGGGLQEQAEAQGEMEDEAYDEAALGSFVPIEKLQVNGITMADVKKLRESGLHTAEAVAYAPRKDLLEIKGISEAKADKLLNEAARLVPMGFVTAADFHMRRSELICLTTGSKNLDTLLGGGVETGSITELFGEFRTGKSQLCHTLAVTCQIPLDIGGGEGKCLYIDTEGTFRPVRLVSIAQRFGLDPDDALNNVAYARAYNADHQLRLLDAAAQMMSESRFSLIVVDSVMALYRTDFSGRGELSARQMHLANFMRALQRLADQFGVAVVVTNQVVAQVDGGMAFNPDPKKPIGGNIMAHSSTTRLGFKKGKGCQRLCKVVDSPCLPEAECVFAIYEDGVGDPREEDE
Kind of data set: EMSA. Particulars: Kd EMSA: 35 mM Tris-acetate pH 7.5, 50 or 100 mM NaCl, 7 mM Mg acetate, 2 mM ATP, 1 mM DTT, 0.25 mg/mL BSA, 3 uM nt/bp DNA, 30 C 30 min; salt titration: 20 mM …. Background: A gel shift assay detects complexes by their altered migration in electrophoresis.

Data set [2] addresses T2, Rad51-ED (Rad51-E135D) E135D (Saccharomyces cerevisiae) (UniProt P25454).
T2 sequence: T1 sequence with E135D, N305K
Kind of data set: EMSA. The note with it: Kd EMSA: 35 mM Tris-acetate pH 7.5, 50 or 100 mM NaCl, 7 mM Mg acetate, 2 mM ATP, 1 mM DTT, 0.25 mg/mL BSA, 3 uM nt/bp DNA, 30 C 30 min; salt titration: 20 mM ….

In data set [3] the target is T3, Rad51 wild type (Saccharomyces cerevisiae) (UniProt P25454).
T3 sequence: T1 sequence with N305K
Kind of data set: EMSA. Particulars: Kd EMSA: 35 mM Tris-acetate pH 7.5, 50 or 100 mM NaCl, 7 mM Mg acetate, 2 mM ATP, 1 mM DTT, 0.25 mg/mL BSA, 3 uM nt/bp DNA, 30 C 30 min; salt titration: 20 mM ….

For data set [4], the target named is T1, Rad51-KN (Rad51-K305N) K305N (Saccharomyces cerevisiae). Kind of data set: EMSA (salt titration). The note with it: 3.33 uM Rad51, ATP, Mg2+; listed as label assigned from text (ED defect stronger); Kd EMSA: 35 mM Tris-acetate pH 7.5, 50 or 100 mM NaCl, 7 mM Mg acetate, 2 mM ATP, 1 mM DTT, 0.25 mg/mL BSA, 3 uM nt/bp DNA, 30 C 30 min; salt titration: 20 mM ….

Data set [5] addresses T2, Rad51-ED (Rad51-E135D) E135D (Saccharomyces cerevisiae). Kind of data set: EMSA (salt titration). Particulars: 3.33 uM Rad51, ATP, Mg2+; listed as label assigned from text (ED defect stronger); Kd EMSA: 35 mM Tris-acetate pH 7.5, 50 or 100 mM NaCl, 7 mM Mg acetate, 2 mM ATP, 1 mM DTT, 0.25 mg/mL BSA, 3 uM nt/bp DNA, 30 C 30 min; salt titration: 20 mM ….
For data set [6], the target named is T3, Rad51 wild type (Saccharomyces cerevisiae). Kind of data set: EMSA (salt titration). The note with it: 3.33 uM Rad51, ATP, Mg2+, glutaraldehyde fixed; Kd EMSA: 35 mM Tris-acetate pH 7.5, 50 or 100 mM NaCl, 7 mM Mg acetate, 2 mM ATP, 1 mM DTT, 0.25 mg/mL BSA, 3 uM nt/bp DNA, 30 C 30 min; salt titration: 20 mM ….
The target in data set [7] is T4, GST-Rad55-His6-Rad57 complex (S. cerevisiae, UniProt P38953 1-406; P25301 1-460).
T4 construct: Rad55, Rad51 paralog of budding yeast; Rad57, Rad51 paralog of budding yeast; stored in 20 mM Tris-HCl pH 7.5, 0.2 M NaCl, 0.1 mM EDTA, 1 mM DTT, 50% glycerol; also called Rad55-Rad57; Rad51 paralog complex; source: purified as described (Liu et al. 2011b)
T4 sequence (looked up) 1: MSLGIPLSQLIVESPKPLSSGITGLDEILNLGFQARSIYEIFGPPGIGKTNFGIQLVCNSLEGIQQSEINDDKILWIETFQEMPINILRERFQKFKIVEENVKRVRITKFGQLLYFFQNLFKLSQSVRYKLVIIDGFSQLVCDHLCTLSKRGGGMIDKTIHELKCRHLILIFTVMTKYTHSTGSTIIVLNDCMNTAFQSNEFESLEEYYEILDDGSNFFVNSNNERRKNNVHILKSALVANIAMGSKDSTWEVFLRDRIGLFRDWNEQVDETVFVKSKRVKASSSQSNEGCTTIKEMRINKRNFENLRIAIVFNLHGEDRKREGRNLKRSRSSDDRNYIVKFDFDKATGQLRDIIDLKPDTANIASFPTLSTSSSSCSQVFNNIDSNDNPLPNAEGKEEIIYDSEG
T4 sequence (looked up) 2: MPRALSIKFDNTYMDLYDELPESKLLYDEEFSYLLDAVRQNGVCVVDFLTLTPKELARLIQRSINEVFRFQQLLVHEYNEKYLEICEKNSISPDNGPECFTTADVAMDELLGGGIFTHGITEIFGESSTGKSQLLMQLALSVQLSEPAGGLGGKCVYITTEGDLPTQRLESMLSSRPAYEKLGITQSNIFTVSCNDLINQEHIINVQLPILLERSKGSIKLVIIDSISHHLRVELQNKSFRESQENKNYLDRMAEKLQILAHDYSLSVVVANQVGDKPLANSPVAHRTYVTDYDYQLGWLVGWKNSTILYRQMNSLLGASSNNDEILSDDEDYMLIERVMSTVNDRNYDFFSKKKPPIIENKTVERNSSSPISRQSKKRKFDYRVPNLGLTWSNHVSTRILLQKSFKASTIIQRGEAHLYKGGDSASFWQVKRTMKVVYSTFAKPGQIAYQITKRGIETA
In words: pull-down; 100 nM GST-Rad55-His6-Rad57 with 100 nM Rad51 in buffer P (25 mM Tris-acetate pH 7.5, 10 mM magnesium acetate, 50 mM NaCl, 1 mM DTT, 10% glycerol, 0.01% NP-40), 25 ul, 1 h at room temperature; captured on BSA-treated glutathione agarose beads; immunoblot with anti-Rad51 and anti-GST. Particulars: both partners purified. On the technique in general: A western blot detects proteins with antibodies after separation by electrophoresis.

Consider “AACGACGTTTGGTCAGTTCCATCAACATCATAGCCAGATGCCCAGAGATTAGAGCGCATGACAAGTAAAGGACGGTTGTCAGCGTCATAAGAGGTTTTAC [olWDH2086 100 nt ssDNA]”, for which the Kd in data set [1] is 339 nM and 402 nM; in data set [2] it was 486 nM and 602 nM; in data set [3], 497 nM and 578 nM.

Turning to PhiX174 RF1 dsDNA, the salt titration midpoint (mM NaCl (salt titration midpoint)) in data set [4] is 71; in data set [5] it was 42; in data set [6], 174.

With PhiX174 viral ssDNA, the salt titration midpoint (mM NaCl (salt titration midpoint)) in data set [4] worked out at 143; in data set [5], 130; in data set [6], 246.

B1: Rad51 wild type protein (natural protein, S. cerevisiae, UniProt P25454 1-400, looked up)
chain: T1 sequence with N305K
notes: Rad51, Saccharomyces cerevisiae; native, untagged protein; Purified native and untagged; also called wild-type Rad51; wild type Rad51
In the case of B1, the binding result in data set [7] is “binds”.

B2: Rad51-E135D (natural protein, S. cerevisiae, UniProt P25454 1-400, looked up)
chain: T1 sequence with E135D, N305K
notes: Rad51, Saccharomyces cerevisiae, with the single change E135D (isolated by mutagenic PCR); native, untagged protein; also called Rad51-ED; rad51-ED
For the molecule B2, the binding result in data set [7] is given as “binds”.

B3: Rad51-K305N (natural protein, S. cerevisiae, UniProt P25454 1-400, looked up)
chain: T1 sequence
notes: Rad51, Saccharomyces cerevisiae, with the single change K305N (isolated by mutagenic PCR); native, untagged protein; also called Rad51-KN; RAD51-KN
For B3, the binding result in data set [7] was “binds”.
